Results reported in the supplement of paper PMC9170038.

Tested on: K4 kissing-loop RNA reporter
Assay: apparent KD of K4 kissing-loop reporter; higher = weaker reporter binding
Settings: Eterna round: R107
Description: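 RNA-MaP round R107: designed RNA switches with theophylline, tryptophan, arginine or FMN aptamers are transcribed on-chip within common flanks. They are titrated with a labelled K4 kissing-loop RNA reporter in RNA-MaP buffer (100 mM Tris pH 7.5, 80 mM KCl, 4 mM MgCl2), without ligand or with the indicated ligand. Median apparent KD per design.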

[1] = input ligand: theophylline 20 uM
[2] = input ligand: tryptophan 2.4 mM
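Further: bound reporter read as fluorescence of individual clusters on recovered sequencing chips by microscopy, with normalized cluster intensities fitted with a binding model.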

| Sequence | apparent KD of K4 kissing-loop reporter (input ligand: FMN 200 uM) [nM] | apparent KD of K4 kissing-loop reporter (input ligand: arginine 13.2 mM) [nM] | apparent KD of K4 kissing-loop reporter (input ligand: none) [nM] | apparent KD of K4 kissing-loop reporter [1] [nM] | apparent KD of K4 kissing-loop reporter [2] [nM] |
| --- | --- | --- | --- | --- | --- |
| GACGGGCAGUGAUGUUGCCGGUCUCUUGGACGAGGACCGGUACGGCCGCCACUCGAUCUGAUGCGGGAAUUGCAUCUUUUAAUAA [Raorbirabe] | 237 | 115 | 185 | 194 | 333 |
| GAUAUAGAGGCGGCCGCCACUAGUGAUGUUAGUGAUGUUAGAUAGAGAAUAGAACAGAGGUGGGAUAGGACCGGGCCAGAUAGAG [whbob_SS_Tryp_B_w34] | 90.6 | 72.7 | 67.9 | 65.8 | 76 |
| GAUUAUUAUUCUAAAUAACAUUAUUCAGAAGGAGCGUGUUUGUACACAGGUAGGUCGCUGAAUGCUAAGCCAGUGAUGUUGGUAA [JR_SSArginiA_Sub001] | 154 | 206 | 203 | 191 | 128 |
| GAUUGAGGAAACUCGAUCUUAUAUCCUAGGCAGGAUAUGCGGAAACGCAGAAGGGCCACCUAGCAGUGAUGUUGCAAGCGAAAGC [Ex FMN A 5] | 203 | 425 | 379 | 471 | 207 |
| GCAAAACAAACGUAGAGUGGAACACAGAGACGAGGACCGGUACGGCCGCCACUCGACGAGGUUUUCAGUGAUGUUGAAAAUUUAG [Exclusion Tryptophan A GF2] | 133 | 162 | 125 | 151 | 199 |
| GCAAAACGCAGUGAUGUUGCGAUAUCGGAAGGAGCGCGUGAAAACGCAGGUAGGUCGCCGAUUCAGUGAGUAUCUCGCUGUUUGC [Arginine A K4 18] | 258 | 283 | 293 | 259 | 232 |
| GCAGCACCGAGUGAUGUUUGGUUCAGCGUGAAGGAUAUAAUAUCUGUUAGAAGGUCAAGUGAGAUUGUCGCGAAUCAGUUUUGAU [theeternabot_exclusion_KL_FMN_A_41] | 368 | 248 | 309 | 332 | 290 |
| GCAGUGAUGUUGCACGAGUAGGGUAGAGUACGAGGACCGGUACGGCCGCCACUCGUACGGAACUCGCUAAUUUAUGGAAUGGUGA [I] | 465 | 590 | 752 | 761 | 497 |
| GCAGUGAUGUUGCGCAGGUACAGUGGAGUGCGAGGACCGGUACGGCCGCCACUCGUACAGAACUAGCUAAUAUAUGGAUAGGUGA [VIII] | 287 | 358 | 315 | 347 | 280 |
| GCAGUGAUGUUGCGCGGGUACGGUGGAGUGCGAGGACCGGUACGGCCGCCACUCGUACGGAACUGGCUAAUAUAUGGAUAGGUGA [VI] | 397 | 291 | 383 | 379 | 336 |
| GCAGUGAUGUUGCGGAUGUACAGUGGAGUGCGAGGACCGGUACGGCCGCCACUCGUACAGAACAAGCUAAUACAUCGAUAGGUGA [XI] | 323 | 358 | 461 | 409 | 339 |
| GCAUAGCAGACGUUGAGUGGGAGCCAGGCACGAGGACCGGUACGGCCGCCACUCGACUAGGUUUUCAGUGAUGUUGAAAAUUUAG [Exclusion Tryptophan A GF4] | 151 | 141 | 142 | 140 | 156 |
| GCAUAUACGAGAAGGAGCGUGCAUGACGAAUUAAUCAUCGACCUUAGUGAUGUUAAGGACGCACAGGUAGGUCGCUCGUGUAUGC [#04 K4 Arginine B Same State] | 380 | 322 | 347 | 345 | 354 |
| GCCAGAGCGCGAAGGAGCGCCGUGACAGGUUGCUGCCGUGGGCAGUGAUGUUGCUCAGUCCGGCAGGUAGGUCGCGUGCUCUGGC | 422 | 434 | 548 | 433 | 372 |
| GCCAGUGAUGUUGGCGAACCAACGCAUGCAGAGGAUAUUCGUUCGGGAAGAAGGCUGCAGCGUUCUCUCCCGCAGUGAUGUUGCG [Same State FMN A GF 25] | 164 | 141 | 169 | 153 | 150 |
| GCCAGUGAUGUUGGCGAACCGACGCAUGCAGAGGAUAUUCGAUCUUGAAGAAGGCUGCAGCGUCAUCAUACGCAGUGAUGUUGCG [Same State FMN A GF 27] | 172 | 156 | 182 | 161 | 139 |
| GCCGCCGCGGCAGGAUAUAGGUUCAUGGAGUGAUGUUCCAUAACCCGAGUGAUGUUCGUUAUCCGCCUAGAAGGGCCGCGGCGGC | 201 | 166 | 205 | 177 | 169 |
| GCCGUACGCAUGGAUACCAGCAUCAGAUCUUAGUGAUGUUAAGUCGAGAGUUGGUCAAAAUGCCCUUGGCAGCCAUGCGUACGGC | 128 | 90.8 | 105 | 99.5 | 98.2 |
| GCCGUACGCAUGGAUACCAGCUAUUAGAGUGAUGUUCUAUGGCCCUGCCAGAGUAGCUGUAGCCCUUGGCAGCCAUGCGUACGGC | 148 | 119 | 130 | 144 | 140 |
| GCCGUACGCAUGGAUACCAGUCUUUCACGACUGGGCAUGGAGUGAUGUUUCGUGAUGCUAGACCCUUGGCAGCCAUGCGUACGGC | 201 | 163 | 175 | 184 | 175 |
| GCCGUAGAUGGAAGGAGCGUGCGUGAAGUGAUGUUUCACGAAGAGUUUUCCACCUUAUAUGCACAGGUAGGUCGCCAUCUACGGC | 114 | 99 | 100 | 105 | 95.2 |
| GCCGUAGAUUGAAGGAGCGGACAGAUACGGGAAUCCAGUGAUGUUGGAAGGUAACUACUAGUCCAGGUAGGUCGCAAUCUACGGC | 143 | 128 | 136 | 146 | 129 |

| Sequence | apparent KD of K4 kissing-loop reporter (input ligand: FMN 200 uM) [nM] | apparent KD of K4 kissing-loop reporter (input ligand: arginine 13.2 mM) [nM] | apparent KD of K4 kissing-loop reporter (input ligand: none) [nM] | apparent KD of K4 kissing-loop reporter [1] [nM] | apparent KD of K4 kissing-loop reporter [2] [nM] |
| --- | --- | --- | --- | --- | --- |
| GCCUAGUGAUGUUGGGUAAUUUAAACCGGGCGAGGACCGGUACGGCCGCCACUCGGAAACACAACAAAAUUUAAUUUAAUUUAAA [Exclusion - Trytophan A] | 176 | 138 | 174 | 204 | 152 |
| GCGAAGUGAUGUUUCGCCAAUAUUUGAUGAAAGGAUAUCUACUUGAAGAGAAGGUUCAUAUGACUCAAUACCUGACUUGGACCCG [theeternabot_sameState_KL_FMN_A_37] | 86.8 | 84.2 | 81.4 | 82.9 | 74.6 |
| GCGAUUCAGUGAUGUUGGAAAUACAGGGAUACCAGCCGAAAAUAAGGCCCUUGGCAGCUUAAUAGGAAAGAACUAAGAAAGACGC [Theophylline A Same State; Euphoria Solution 3] | 556 | 603 | 671 | 755 | 460 |
| GCGCGUCAUGUCAGCGGUGACACUGUCGAUACCAGUGCCGAAAGGCGCCCUUGGCAGCGACGUGCUGGAGUGAUGUUCCAGCGUU [#2 Exclusion - Theophylline A Attempt #30 (HarryS)] | 154 | 135 | 151 | 149 | 145 |
| GCGCGUCAUGUUGGCGGGAACUAAGCCGAUACCAGCCGGGAAACCGGCCCUUGGCAGCGGCGCGCCGGAGUGAUGUUCCGACAGA [#2 Exclusion - Theophylline A Attempt #1 (HarryS)] | 226 | 246 | 254 | 284 | 164 |
| GCGGCCCAGCCGGAUACCAGUGACCCGCUGGGAACCGCGGGCCCAGAGUGAUGUUCGGGACACCCUUGGCAGCCGCCUGGGUCGC [#2 Same State - Theophylline B Attempt #18 (HarryS)] | 689 | 274 | 928 | 684 | 320 |
| GCGUCUUGGUCGGCCGCCACUGAGCCUAGUCACACUCUUGAGUGAUGUUGAAGAUGGUGGACUUGCAGGACCGGGACCACGGACG [theeternabot_sameState_KL_Trp_B_41] | 946 | 612 | 590 | 569 | 450 |
| GCUACCUAUGCAGGAUAUGGUAUUACGAGUGAUGUUCGAGGCAUAUAGAGUGAUGUUCUAUAUCCACCAGAAGGGCAUAGGUAGC | 184 | 148 | 179 | 162 | 164 |
| GCUCAGGAGUGAUGUUCCAAGUGAUGUUAACGAGGACCGGUACGGCCGCCACUCGAUACGGCCGGACCGUAAGAUAAACUAGAGC [Same State - Tryptophan A (Freestyle 8)] | 196 | 216 | 188 | 380 | 199 |
| GGACAAGUUUCCGAUACCAGCCUUUAUGCUGGACUAGCUUGAUCAGUGGCUAGUGAUGUUGGCCCUUGGCAGCGGGACUCUUCGG [theeternabot_exclusion_KL_Theo_B_10] | 221 | 204 | 217 | 238 | 218 |
| GGACGACAGGCGGCCGCCACUCAAAGCAGCCAGCGAGUGAUGUUCGUGGCGGAGUGAUGUUCCUAGAGGACCGGGUCUGCAGUUC [Same State Tryptophan B GF 18] | 449 | 390 | 468 | 490 | 362 |
| GGAGCUACCUGGGAUACCAGUCGGAGUCUCAGAGCUCGGAGUGAUGUUCUGGGAUGUUUCGGCCCUUGGCAGCUCUGGGACUCCU [#2 Exclusion - Theophylline B Attempt #18 (HarryS)] | 872 | 749 | 864 | 763 | 881 |
| GGAGGAGAGGGAAGGAGCGUGAAAGAGAAAGAAUAUAGUGAUGUUAUAUAGAAGAAAGAAUCACAGGUAGGUCGCCCGGAGGAGG [SSArgB.A] | 331 | 556 | 684 | 446 | 483 |
| GGAUAGGACACAGGAUAUGGUAGUGAUGUUACCAAACUGGUUAAACAUGUCAGAAAACUGGCAUGACCAGAAGGGUGUCCUAUCG [FmnBX 27 C11+G75] | 83.4 | 63.8 | 66.2 | 71 | 63.8 |
| GGAUAGGACAGAGGAUAUCCAGUGAUGUUGGAGAAUUCUCCUUCAUCAUGUCACAAAAGUGGCAUGGGAGAAGGCUGUCCUAUCG [Mod of Eli's FmnBX 29 v3] | 146 | 579 | 576 | 899 | 578 |
| GGAUAGGACAGAGGAUAUCCUGAGUCUACAAAGUAGGCUCAUAAAGGAUGAAUCCUAGUGAUGUUAGGAGAAGGCUGUCCUAUCG [FmnBX 16 - #SwitchBubble #StaticStem #Palindromic] | 110 | 84.6 | 76.3 | 79.5 | 88.7 |
| GGAUAGGACAGAGGAUAUCUCUAAAGAGGCAAGAAAACUUGUCUCAGAGAUGACUCAGUGAUGUUGAGAGAAGGCUGUCCUAUCG [FmnBX 7 - #SwitchBubble #StaticStem] | 425 | 161 | 174 | 168 | 152 |
| GGAUAGGACAGAGGAUAUCUCUGAGGCAAGAAAACUUGUCUCUAAGGAGAUGACUCAGUGAUGUUGAGAGAAGGCUGUCCUAUCG [FmnBX 12 - #SwitchBubble #StaticStem] | 230 | 144 | 155 | 140 | 157 |
| GGAUAGGAUAGAGGAUAUGGUAUAGGCAAGAAUAACUUGUCAUGUAAAUCCAUGAGGAGUGAUGUUCCAGAAGGCUGUCCUAUCG [MatMod 9 - Jieux - Exclusion - FMN B] | 620 | 179 | 231 | 168 | 123 |
| GGAUCCACCAGUGAUGUUGGAGAAAACUCUAAGGAUAUGACGAAAGUCAGAAGGUGGUAGACUGGGCAAAGUCCGGUCGGAUCCA [FmnA10 U30+G66] | 490 | 120 | 378 | 873 | 660 |
| GGAUGGUAGGCGGCCGCCACUAAAACUGAACACAUACAAACCAGUGAUGUUGGUAUGAUGAAGUAUAGGACCGGGCCUAGAUAGA [Exclusion - Tryptophan B (Freestyle 2)] | 1040 | 731 | 972 | 672 | 827 |
